The values below come from patent publication US20230365648A1.

Some targets named below: Rat CD47 (rat) (UniProt P97829); Cyno CD47 (Cyno monkey); Human CD47 (human) (UniProt Q08722).
Common to all, as to assay: BLI (Octet)
A general note: Biolayer interferometry detects binding as a change in optical thickness at a sensor tip.

Sequence of Human CD47 (human) (Q08722 19-139): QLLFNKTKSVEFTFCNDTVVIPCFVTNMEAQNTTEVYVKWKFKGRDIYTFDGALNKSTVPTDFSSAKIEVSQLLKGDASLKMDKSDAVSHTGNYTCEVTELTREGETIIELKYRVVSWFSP
Sequence of Rat CD47 (rat) (P97829 19-140): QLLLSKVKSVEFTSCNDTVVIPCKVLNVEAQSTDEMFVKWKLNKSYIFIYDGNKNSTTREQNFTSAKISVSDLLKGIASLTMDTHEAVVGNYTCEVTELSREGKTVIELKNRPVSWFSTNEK

A word on the Kd: it is the constant that tells how readily two partners part at equilibrium. A lower Kd goes with a tighter complex. On to Anti-human CD47 (clone MIAP410), for which the equilibrium dissociation constant (Kd) with Rat CD47 (rat) was found to be 1.16 nM; with Cyno CD47 (Cyno monkey) it was 0.289 nM; in the assay with Human CD47 (human), 0.216 nM.
